The target of one test is HXBc2. Briefly: ELISA. For orientation: An ELISA detects its analyte on a solid surface through an enzyme-linked reagent.
The target in test [1] is gp41 MPER peptide (residues 657 to 669 of gp41) linked to a C-terminal C9 tag. Kind of test: SPR. On the technique in general: SPR reads the build-up and loss of mass on a sensor chip optically.

Bounds are passed on as bounds.

B1: HC+gLC (antibody, V domains shown)
VH: QVQLVQSGGQMKKPGESMRISCRASGYEFIDCTLNWIRLAPGKRPEWMGWLKPRGGAVNYARPLQGRVTMTRDVYSDTAFLELRSLTVDDTAVYFCTRGKNCDYNWDFEHWGRGTPVIVSS
VL: EIVLTQSPATLSLSPGERATLSCRASQYSVSSYLAWYQQKPGQAPRLLIYDASNRATGIPARFSGSGSGRDFTLTISSLEPEDFAVYYCQQFGQGTKLEIK
Regarding B1, the EC50 (as a rule, the concentration needed to bring the measured effect to its halfway point) with HXBc2 was found to be 2.14 µg/mL.

B2: gHC+gLC (antibody, V domains shown)
VH: not shown
VL: EIVLTQSPATLSLSPGERATLSCRASQYSVSSYLAWYQQKPGQAPRLLIYDASNRATGIPARFSGSGSGRDFTLTISSLEPEDFAVYYCQQFGQGTKLEIK
Consider B2, for which the EC50 with HXBc2 is > 50 µg/mL.

B3: gHC+LC (antibody, V domains shown)
VH: not shown
VL: EIVLTQSPGTLSLSPGETAIISCRTSQYGSLAWYQQRPGQAPRLVIYSGSTRAAGIPDRFSGSRWGPDYNLTISNLESGDFGVYYCQQYEFFGQGTKVQVDI
Regarding B3, the EC50 with HXBc2 was 21.4 µg/mL.

B4: 2F5 wild-type IgG (antibody, V domains shown)
VH: RITLKESGPPLVKPTQTLTLTCSFSGFSLSDFGVGVGWIRQPPGKALEWLAIIYSDDDKRYSPSLNTRLTITKDTSKNQVVLVMTRVSPVDTATYFCAHRRGPTTLFGVPIARGPVNAMDVWGQGITVTISS
VL: ALQLTQSPSSLSASVGDRITITCRASQGVTSALAWYRQKPGSPPQLLIYDASSLESGVPSRFSGSGSGTEFTLTISTLRPEDFATYYCQQLHFYPHTFGGGTRVDVRR
As for B4, in test [1], the Kd (commonly the free concentration of one partner at which half of the binding sites on the other are occupied at equilibrium, for simple one-to-one binding) stood at 9.5 nM.

The values above are taken from patent US20160009789A1 (published 2016).
